Assay results reported in the domain aggregation screens of Martell et al. (2025).

Assay: soluble fraction after stress (log2 fold change); higher = more stays soluble; pooled small domains, quantitative proteomics
Details: stress: pH 4
Summary of the method: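 Values are on a log2 scale, where higher means more of the domain stayed soluble after pH 4 stress. They are fold changes in the soluble amount of each domain from pooled custom libraries, measured by high-throughput quantitative proteomics. The fold change is taken to reflect aggregation propensity.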

Sequence | soluble fraction (log2)
HMNGKPDMTPIPAGSRNNDLHAWAYGRLLNHPDNAEAIRRDLFERGQTSGLKESELETIWQSIRRQLGGD | 0.126
HMRFKPLAEILAAVQTRYAGRVLDVELDRDQAGRNVYEVKLLAADGSRREIHIDAVTGKEVSL | 0.178
HMDQINNDLRKLIEFLPEDQKTVLKMRHFQEMSFKEIAKATGVSINTALGRMRYALINLRKLIEENEI | -0.903
HMSGPFTELTPREREILSHLAEGQSNKVIARHLQISDGTVKLHVKAILRKLEVHSRVEAAVMAVEHGV | 0.0256
HMEKLPRYILPGVPKVKSINISSALDGLVQDYSREFNISQKDIFQIALVEFFKKYGYHNAVKAVL | 0.0067
HMAGPVLTPEEAEVLRILADHGEMTVDNISAEGKMSAAVVLRGLGVLSAYGLVAPGGPGRWRSE | 0.00808
HMWAQSVSLHGLLGRQALLIVDGKPPRAVAPGQTHLGVTVLSTDEDRAVVALAGGQRLTLRVGESPVSVG | 0.264
HMIDFTHEDIERLWNAIVHYVPERQKSDMAIDFIKSLEDIGVEHDEIKASAEYDPKLEEAINTVY | -0.357
HMGRHSPLSIEQKEQLKTEIVALQQQRGGGRVTAVNIAELIQQKFNVVYNPNSLYKLLKQIGMSWV | -0.311
HMVEGMQFDRGYQSPYFVTNAEKMVAELDNPYILLVEKKISSMKELLPVLEPVAQQGKSLLIISEEVEG | -0.602
HMNTPLYLKIREQIFDALRSGRWAANDPLPSETKLASEFEVSQGTIRKAIDDLVAQNILYRHQGRGTFIRR | 0.125
HMEDPRVTEIKNLQQDLAKKFKPTQGPASASDAVERVTAITTVMTKVAALPEDLRSEAMQPGKKM | -0.0985
HMDEFHLSERERQILNLLVLGHTYKHIASDLNIAYATVNKHVSNVYAKLRVQSASEAVALAIRKGL | -0.58
HMTKGDRIKARREELGLTQTDLAEAISSTKQNIYKYENNIISNIPSDKVEAIAEVLKISPAYLMGWGDE | -0.594
HMKGQLVVFPNPASSNDMVRFNKNISFSIFDITGHLVDTKRNVNELSVGNLEAGTYILRTEQGDVLRMVI | -0.904
HMGDFVIVPDLIGKTIEEFDSELNELNLKYIISDSGNYNPDFKINSVLDQLPNANSKVKGGRKIYITLNAS | -1.48
HMQWLDSIRSRLRVGQTISYFEPRENASSSGLIIELRRKRVLVLEIATQKRWLIEYAAINVDG | -0.325
HMRLSVRQRMSDVLGALKTQAFVEFTQLFRPQEGRMGVTVTFSAILELLREGLIEIVQSEPFAPIHVRAGA | 0.22
HMRGLLSQREHDVLDLVARGFSYGEIARLRSISVSTVQTHIKNLYRKLAVSSRTEAVYEAKQMGI | -0.755
HMQDREKNIAEGRDIIEHEFMRLGISLSRYDLDGLASKLNVKAGDDVLAGVGAGDIRVSQIISQLG | -0.747
HMEAIYKKNKNLIHTVIRDNFPFLIDTADYEDAFQEGSIGLIRAIDRFDDGLEYKFSSYAYTAIRNQIA | -0.165
HMISLNEDQKLAILNEWNQRPDDPPFIKELIELVFPDIPEEAKTGRSRYGIAIKKFLAEKSLQAKV | -0.554
HMYSFPHQLLKLRTEKQLSQAELATRLFVSRQAVSKWENGDAEPSIDKLILLAKVFNVSLDRLILGT | 0.18
HMSTANIVVPDVKGKTFEEAKKAIEAEGLTAKAEGDESGVVQKTSPSYGVSVESGSEVTLTLVKSDD | 0.0493
HMFMSDDDIRILVKEWLQSQNRKSYQLAEEIGIRPQTFYAQMSVRKISANTKKALSRIIPGL | 0.0503
HMAMTQNVDLAGRIVFNEKKEEVFNFGKHKGRSVAEVFEKEPSYYDWMLKGDFPAETKQVLTALRLRGLS | -0.64

Sequence | soluble fraction (log2)
HMTYQHQSIIHRRTRGAILTAAKELLAESGISGTNMIEIADRAQVSRASLYNHFRDKHEVFLALVES | -0.407
HMTSVRVPVKKEIWFWAIKESQRDLNEILARFPKMDKWINQEENPTFNQLEKVAKFLRVPFGYMFLDKPPK | 0.332
HMSTSFQVQVSVLDLRIRKEPTVKGQEVGKISKGIHTITETRSADGYTWGKLESGQGWIALEFTTKLD | 0.0132
HMFPELNAEETQVVQLLQKQTEGMQVNSLVVESNIPITRMSGILFELELKGIIRNYAGGVYKL | -0.951
HMADFYEVLGVERNASSDQIKRAYRKLARELHPDVNLDPVAQNRFKEVTEAYEVLSDPNKRSNFDRG | -0.0615
HMRGPPQVLVDVELEDGRVGQIGVRNGDDATELAETFVRAFRLEQSFVGRLANVIQGKIRELLHSQ | -1.17
HMTDVRFISIPIQKEHPWNRKLVSELNLPPGTLLVFLRRTGENIVPNGKTMIQEGDVLVLGASAYR | -1.04
HMYKNLRAFRESLGMTQKDFAASLSIGLSTYNGYEVGAREPKSDFWIAVARKYGVTIDYLMGFSDDPHK | 0.195
HMHSRLEDIPGIGPRRRAMLLRHFGGLAELKAAGVEEIARVEGINMALAQRLWRALHGVPDPT | 0.343
HMPKSKTPDDAAEEFRTAFSALDMDGKVTVKDMAEYMGVIDKTVYARLKKMGDEFTLDKGVITKKT | -0.084
HMEYLIENYGSVINQARMKKGMTQEQLSSKTGVSQAYIRSIESQNMKPTDAVARKIEFELGIKLFE | 0.147
HMNIEIIEVQEESTPSEISKIISTESTKIIEDLLNLGVMASLETPLKNQDIEKLLEGYGYIVDIKP | -1.84
HMSKHAIQNELEKIEGIGKQTADSLLKEFKSVKKLRTLPLSEIEKVIGKSKATIVFEALHKDK | 0.0949
HMLKNKSTGNINETKAILELALNHSHFKVFDNRDMTVTFKNLATQFTTMQRILVQMFFPLPAGVELIIE | 0.268
HMSKPILSFVDPEKDPSHYVKRYITEETYKDWFSEHFPDYTLYEGIGITQEEYRNIVNELTKP | -1.7
HMKTFSTRLIALREAIGVNQSELARRVGVTPQAVQKWESGANGPRGKRLEKLASELRSTVGYLVSGEGDG | 0.0382
HMIPYSDLLKLLSNDAMPKFRNKDGWAKIHALETYLASRWSYQEYGFASFTVLLETVHNAEIRNDSVRLM | -0.0131
HMPSHALFWTLLKEVPGYDPHYKDVIKEGIVHEHSGGRTTSLSEMYTKYPREYSLMIEAMKG | -0.326
HMGIVAPGTLKHLHAVGNSYYPDWETKRHELVTAVTKGRTSSSKELYEAEANRLITRIEELLMTAAQSV | -0.548
HMAQFNELLFELRQDRKMTQEDLAKVLFVTSGTISNYENGVHLPDIEKLISLADFFGVTTDYLLG | -0.726
HMESYTEEMLEKMSVSKLRTIARELQVDNMTREQIRFGKKTELIQNILEFTGREIENMQLYDK | -0.357
HMSSDDEAFKRELVGLIPHLRAFARTLTGDPTAADDLAQDAMMKAWDARASYQMGTNMKAWTFMILRNQFY | -1.65
HMPVNEEFKRLIDKIKYEFSINQAQISERLGVKSTYLSDMINGRVPYNESMQKKIHEVFHIG | 0.114
HMDYIITHYPDNKRFETQVDGVVAFVQYRLSGDKLDIIHTIVPPAIGGRGIAAALVKYAYDYAIENGMK | -0.666
HMDLTKLFDHDSEYGKSYVFGKITDEMIARAEQTLGYRMPASYIELLKVQNGGMISDELDESWLTTIYGIG | -0.932
HMNEVETWSVQADGATGRIDKWLAEQNEWSRSQVQEWLKAGRVEVDGRVVKPNYKLSGTESIAVHIPEAV | -0.0787

Sequence | soluble fraction (log2)
HMARLQEVVVRVPVEDGQTLAAIYREAEVIERADEGTGVLLTVRIPAPLLGRLRRLEGVHVQP | -0.348
HMNEKAALIFNEWSDFVSKDDEANAQIKFDELITLYKKTGYTKIALLEVATKQASNGDIEGALAKYSLLID | -0.919
HMLEQEDMYGYQMIETLRERSEHSFDLKAGTLYPLLHALEQKGLITARDEASAAGRPRRYYHLTDAG | -1.05
HMSDTGQELHDALNMARRTLTILEEQAAGYTALTIPARLVLELEEKRKDVVRLETQIRSAATGTPG | 0.00666
HMKRAVGLDEYRDSIVLKKPEGYTEESYAAYKNAYDALMALDSKETTAEMFANAKSAFEAAQAGLVQKP | 0.0195
HMQSKSEINELPKSIHMAFSPKNFELFIDNLKINEIDFSNWKGELNTIQERVDGQRQIWIQDPQGYWIEIN | -0.335
HMTGAEGKLARYLLTVPSGEPLRLSATDLAKRLGISRASLYRAFQALEDARLIRREGKSMYVLDPAGLEGV | ≥ 0.43
HMDFDVELTSAGTAKVKVIKAVREATGLGLKEAKDLVDNAPSIVKEGLDEAAANDLKAALEETGASVTL | 0.239
HMKIKKIWFDGDYIYGMDERNNTYRQSLLWYSKLRNASAEERERYTFSTIGIHWRELDEDVSFESF | -1.78
HMHFDQILAHAMDERGMNAVQLASLTGLSSGAISRYLAGDRQPTVYSIQQIAKALGVSADYLVG | 0.22
HMSEQTLEDVRRLIEHLPESQKEVVKMRYYQDLSFKEIADLKGISINTALGRMHYAINNMRKMAKEYGL | -0.473
HMDFDLIAIFEEQFARALSPIEINIIKEWKNSNYSDDMIVKALKEAVKSQVFNFRYIERILINWSQNG | -1.64
HMIPPGTITIEGAITKVPVFLDGKQIGTVPLTKEDVEPGKYRIRVLGVGRVITIDPGEKENVLFSGEDLGL | -0.401
HMTAVPADVETVTGFTALDRAGLDTLLARLGLAMDLEDLSFLQAYFRDTERRDPTLTEIRVVDTYWSDH | -1.44
HMGRQVTVPNVTGMLVEEARAAISEAELWVDSPRAVQGEVTRQEPARGERLSPGQEVRIYTES | -0.568
HMSYSYIYNYALKVKMDISSTGGKKPYAYYYYDHSYKLAEEILSLSEETESIELQNKYDELKDFYENP | -1.04
HMFDDEELDTFAGRQSDSYDQQEVEQFSDVLHTMRQDEVQAWWRSLTLRGISLPDELKDEVIML | -1.6
HMFSPTKLKEKRESQGLSQSQLASSLGISRASYFNWESGKTKPNQNNLSKLSEILNVDPRYF | 0.0274
HMSDHYEVLGVDRNATDDQIKKAYRRLARELHPDVNDAPESQEKFKLVTHAYEVLSDPDERRKYDMG | 0.056
HMKGTLPEMITSREEVVLKFMVNGWDAKRIASELDISVLTVRKHIANIYEKLHVQSKAEIISMAHQQKWFN | -0.731
HMDEAETELIRRMVSEHPPTTKRERDIVQMRLRGYLFVEIGEAYGISFQRAAQIYNAAVEKIKEYWD | -0.454
HMGSNENTIREYFDSLIASASKREIMDANPTMSQRTVERILQKLQAEGYVEKIGAARSTRYRRA | -0.0919
HMVDDTGLPTVLISDGRLLERNLHRLHLDHTWLQRRLEENNIPSIQSLFLLTVDKQHQLYFLKK | -0.277
HMGIDISAFSETALQVLRLQAAGYTAKEISEKLHITPRTVKYHASQNYRKLDAKNLVDAVQIAQALHI | -0.171
